# Like-named read-outs stand apart in the source and are kept apart here.
# Tests used:
# [1] = target: Human FcRn (hFcRn), soluble α-chain/β2m heterodimer (human) (UniProt P55899); experiment: BLI
# [2] = target: Human FcRn (hFcRn), soluble α-chain/β2m heterodimer (human) (UniProt P55899); experiment: BLI; remark: listed apart in the source
# [3] = target: Human FcRn (hFcRn), soluble α-chain/β2m heterodimer (human) (UniProt P55899); experiment: BLI; hFcRn-loaded surface; human IgG1 as analyte, association at pH 6.0 and dissociation at pH 6.0
# [4] = target: CDA1 (actoxumab), human IgG1 monoclonal antibody (UniProt P01857); experiment: biolayer interferometry (Octet QK, ForteBio); settings: 30°C, PBS (composition and salt concentration not stated), PBS adjusted to pH 6.0 with HCl for the acidic steps, PBS pH 7.5 for the physiological-pH steps
# [5] = target: Human FcRn (hFcRn), soluble α-chain/β2m heterodimer, P55899;P61769; experiment: BLI (in vitro BLI-based FcRn platform); settings: parent: est. 270; read off a plot
# Human FcRn (hFcRn), soluble α-chain/β2m heterodimer (human), sequence (P55899 34-290, chain 1 of 2): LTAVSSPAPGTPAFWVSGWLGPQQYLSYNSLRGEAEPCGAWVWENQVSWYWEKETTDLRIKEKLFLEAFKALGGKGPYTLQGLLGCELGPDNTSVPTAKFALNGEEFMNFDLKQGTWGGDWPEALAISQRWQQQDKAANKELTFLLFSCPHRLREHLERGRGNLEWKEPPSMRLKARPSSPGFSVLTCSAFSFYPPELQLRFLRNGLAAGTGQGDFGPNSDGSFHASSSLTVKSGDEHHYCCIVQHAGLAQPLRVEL
# Human FcRn (hFcRn), soluble α-chain/β2m heterodimer (human), sequence (P61769 21-119, chain 2 of 2, further chain): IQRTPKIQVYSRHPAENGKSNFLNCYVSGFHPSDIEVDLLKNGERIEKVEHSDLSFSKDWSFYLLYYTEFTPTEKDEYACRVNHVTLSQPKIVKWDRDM
substance,measurement,setting,value
"CDA1 (actoxumab), fully human IgG1 mAb (antibody)",koff,[1],0.101 s⁻¹
same,fold change FcRn binding rate,[2],1.14 fold
same,fold change of the association rate against RAB1,[2],1.09 fold
same,fold change of the dissociation rate against CDB1,[2],1.18 fold
same,koff,[2],0.0906 s⁻¹
same,fold slower off-rate at pH 6.0 than at pH 7.5,[3],5 fold
soluble human neonatal Fc receptor (hFcRn; alpha-chain/beta2-microglobulin heterodimer),average association rate (apparent kon),[4]; pH 6.0,0.2087 ± 0.0036 s⁻¹
same,kon (apparent association rate),[4]; pH 6.0,0.110 s⁻¹
same,average dissociation rate (koff),[4]; pH 7.5,0.0906 ± 0.0034 s⁻¹
same,koff,[4]; pH 7.5,0.101 s⁻¹
"HCV1, fully human IgG1 mAb HCV (with CDA VH CDRs and CDB Vk CDRs): VH CDR1-3 of HCV1 replaced by VH CDRs of CDA1; Vk CDR1-3 of HCV1 replaced by Vk CDRs of CDB1; residues not printed","other: Predicted Human t1/2, β",[5],27.1 days

# Reference: article PMC4622054
